According to publication PMC7033311, “The Eaf3 chromodomain acts as a pH sensor for gene expression by altering its binding affinity for histone methylated-lysine residues” (Bioscience Reports, 2020):
Where a chain is given by its changes, count along the chain named. Read-outs that look alike come from different tables or passages of the source. Where no end group is shown, it is not given here. [ ]: non-standard residue; d: D form. me2 = dimethylated (di-methylated lysine); Lys(Me3) = C[N+](C)(C)CCCC[C@H](N)C(=O)O; pT = C[C@@H](OP(=O)(O)O)[C@H](N)C(=O)O; Lys(Me2) = CN(C)CCCC[C@H](N)C(=O)O

Columns and labels:
[1] = target: Histone H3 peptide trimethylated at Lys36 (H3K36me3) none (post-translational modification: K36me3) (UniProt P61830); assay: NMR titration (1H,15N-HSQC chemical shift perturbation), Bruker AVANCE-600; settings: 25°C, 20 mM NaCl (given for pH 6.8 and in the pH 8.5 Tris buffer; the wording leaves open whether NaCl was also present at pH 5.2, 6.0 and 7.5), pH 5.2: 10 mM sodium acetate, pH 6.0 and 7.5: 10 mM potassium phosphate, pH 6.8: 10 mM potassium phosphate, pH 8.5: 10 m
Eaf3 CD W88A = Eaf3 CD W88A (Saccharomyces cerevisiae, UniProt Q12432, W88A); format: binding; settings: pH 6.8
Eaf3 CD W88A, sequence (Q12432 1-120 W88A limits assumed): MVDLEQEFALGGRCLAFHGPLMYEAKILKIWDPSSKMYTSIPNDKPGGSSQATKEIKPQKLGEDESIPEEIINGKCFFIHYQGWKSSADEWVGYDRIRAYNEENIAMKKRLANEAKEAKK

Eaf3 CD W84A = Eaf3 CD W84A (Saccharomyces cerevisiae, UniProt Q12432, W84A); format: binding; settings: pH 6.8
Eaf3 CD W84A, sequence (Q12432 1-120 W84A limits assumed): as the sequence (Q12432 1-120 W88A limits assumed) above, with W84A, A88W counted along it

Eaf3 CD Y23A = Eaf3 CD Y23A (Saccharomyces cerevisiae, UniProt Q12432, Y23A); format: binding; settings: pH 6.8
Eaf3 CD Y23A, sequence (Q12432 1-120 Y23A limits assumed): as the sequence (Q12432 1-120 W88A limits assumed) above, with Y23A, A88W counted along it

Eaf3 CD Y81A = Eaf3 CD Y81A (Saccharomyces cerevisiae, UniProt Q12432, Y81A); format: binding; settings: pH 6.8
Eaf3 CD Y81A, sequence (Q12432 1-120 Y81A limits assumed): as the sequence (Q12432 1-120 W88A limits assumed) above, with Y81A, A88W counted along it

[2] = target: Histone H3 peptide trimethylated at Lys36 (H3K36me3) none (post-translational modification: K36me3) (UniProt P61830); assay: NMR pH titration of the free protein (series of 1H,15N-HSQC spectra; His side-chain Hδ2, Hε1, Nδ1, Nε2 and main-chain N shifts); settings: pH 5.2-10.5; 25°C
Eaf3 CD (wild-type) = Eaf3 CD (wild-type) (Saccharomyces cerevisiae, UniProt Q12432); assay: biochemical; format: binding
[3] = target: T1, Eaf3 chromodomain (residues 1-120), wild type (Saccharomyces cerevisiae); assay: NMR titration; 0.1 mM 15N-labeled Eaf3 CD titrated with unlabeled histone H3 peptide; 1H,15N-HSQC; 10 mM potassium phosphate pH 6.8, 20 mM NaCl, 5 mM deuterated DTT, 25°C; Kd from the titration curves of Ala25; settings: both partners purified
T1 construct: Eaf3, Saccharomyces cerevisiae (budding yeast), chromodomain, residues 1-120; 15N-labelled for the NMR titrations; also called Eaf3 CD; WT; source: E. coli BL21(DE3)pLysS, purified (Ni-NTA, thrombin, Ni-NTA, Superdex75)
T1 chain: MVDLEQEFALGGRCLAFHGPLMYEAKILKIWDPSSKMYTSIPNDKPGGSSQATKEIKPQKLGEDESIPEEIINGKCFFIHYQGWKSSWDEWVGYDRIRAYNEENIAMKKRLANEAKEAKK

[4] = target: T2, Eaf3 chromodomain (Eaf3 CD, residues 1-120), wild type (S. cerevisiae, UniProt Q12432 1-120); assay: NMR titration; 0.1 mM 15N-labelled WT or mutant Eaf3 CD titrated with unlabelled histone H3 peptide up to 1:88; 10 mM potassium phosphate pH 6.8, 20 mM NaCl, 5 mM DTT, 25°C; Kd by nonlinear fit of chemical shift change; settings: both partners purified
T2 construct: Eaf3 chromodomain (CD), budding yeast (S. cerevisiae), residues 1-120; 15N-labelled for the NMR experiments; expressed from pET15b; also called WT Eaf3 CD; source: E. coli BL21(DE3)pLysS, purified (Ni-NTA, thrombin, Ni-NTA flow-through, Superdex75)
T2 sequence (looked up): T1 chain

[5] = target: His18 (UniProt position 18, …); assay: NMR; settings: 25 °C, free (no histone peptide), folded
[6] = target: the molecule itself; assay: SEC; size exclusion chromatograms of wild-type and mutant Eaf3 CD (Superdex75 in the purification); peaks marked D: dimer, M: monomer
[7] = NMR pH titration of histidine residues (pKa); format: physicochemical
Experimental: A series of ^1H,^15N-HSQC spectra for 0.1–1.1 mM ^15N-labeled Eaf3 CD were recorded at different pH ranging from 5.2 to 10.5 at 25°C on a Bruker AVANCE-600 spectrometer equipped with a cryogenic probe. The observed chemical shift (δobs) was plotted as a function of pH. pKa values were calculated by a nonlinear least-squares fit of the pH titration curves using the following equation, δobs=[δl+δh×10^(pH-pKa)]/[1+10^(pH-pKa)], where δl and δh represent the chemical shift values at extreme low and high pH, respectively.

## Eaf3 chromodomain H18D H18D
[1]; pH 6.8
  fold change of binding (H18D relative to WT): 11.7-fold increase relative to WT at pH 6.8

## C[C@H](N)C(=O)N[C@@H](CCCNC(=N)N(C)C)C(=O)N[C@H](C(=O)N[C@@H](CCCC[N+](C)(C)C)C(=O)N[C@@H](CCC(N)=O)C(=O)N[C@H](C(=O)N[C@@H](C)C(=O)N[C@@H](CCCNC(=N)N)C(=O)N[C@@H](CCCCN)C(=O)N[C@@H](CO)C(=O)N[C@H](C(=O)NCC(=O)NCC(=O)N[C@@H](CCCCN)C(=O)N[C@@H](C)C(=O)N1CCC[C@H]1C(=O)N[C@@H](CCCNC(=N)N)C(=O)N[C@@H](Cc1ccc(O)cc1)C(=O)O)[C@@H](C)O)[C@@H](C)O)[C@@H](C)O [H3R2ame2K4me3]
Eaf3 CD W88A
  Dissociation constant (Kd): N.B.
Eaf3 CD W84A
  Dissociation constant (Kd): N.B.
Eaf3 CD Y23A
  Dissociation constant (Kd): N.B.
Eaf3 CD Y81A
  Dissociation constant (Kd): N.B.

## C[C@H](N)C(=O)N[C@@H](CCCNC(=N)N)C(=O)N[C@H](C(=O)N[C@@H](CCCC[N+](C)(C)C)C(=O)N[C@@H](CCC(N)=O)C(=O)N[C@H](C(=O)N[C@@H](C)C(=O)N[C@@H](CCCNC(=N)N)C(=O)N[C@@H](CCCCN)C(=O)N[C@@H](CO)C(=O)N[C@H](C(=O)NCC(=O)NCC(=O)N[C@@H](CCCCN)C(=O)N[C@@H](C)C(=O)N1CCC[C@H]1C(=O)N[C@@H](CCCNC(=N)N)C(=O)N[C@@H](Cc1ccc(O)cc1)C(=O)O)[C@@H](C)O)[C@@H](C)O)[C@@H](C)O [H3K4me3]
Eaf3 CD W88A
  Dissociation constant (Kd): N.B.
Eaf3 CD W84A
  Dissociation constant (Kd): N.B.
Eaf3 CD Y23A
  Dissociation constant (Kd): N.B.
Eaf3 CD Y81A
  Dissociation constant (Kd): N.B.

## Eaf3 chromodomain (Eaf3 CD), wild type
[1]; pH 6.0-6.8
  fold change of binding (relative to pH 6.8): weakened 2.3-fold on going from pH 6.8 to 6.0
[1]; pH 6.8-7.5
  fold change of binding (relative to pH 6.8): enhanced 2.2-fold on going from pH 6.8 to 7.5
[1]; pH 8.5
  fold change of binding: enhanced a further 3.6-fold at pH 8.5
[2]
  pKa, His18 of Eaf3 CD: approximately 6.8

## Eaf3 chromodomain H18A H18A
[1]; pH 5.2
  fold change of binding (relative to pH 6.8): decreased by 1.9-fold at pH 5.2
[1]; pH 6.8
  fold change of binding (H18A relative to WT): 2.9-fold stronger binding than WT at pH 6.8
[1]; pH 8.5
  fold change of binding (relative to pH 6.8): slightly enhanced by a factor of 1.2-fold at pH 8.5

## CN(C)C(N)=NCCC[C@H](N)C(=O)O [Rame2, asymmetrically di-methylated arginine]
Eaf3 CD (wild-type); pH 6.8, read-out: Dissociation constant (Kd)
  Kd: > 10 mM

## C[N+](C)(C)CCCC[C@H](N)C(=O)O [Kme3, tri-methyl-lysine]
Eaf3 CD (wild-type)
  Kd: 4.44 ± 0.23 mM

B1: Histone H3 peptide trimethylated at Lys36 (H3K36me3) (peptide)
peptide: SAPSTGGVK(me3)KPHRYKPGT
notes: histone H3; source: synthetic peptide (bought: Qiagen and SIGMA Genosys)
[3]
  Kd: 1.94 ± 0.094 mM

## AR[pT][Lys(Me3)]QTARKSTGGKAPRY [histone H3 peptide H3T3phoK4me3, titration peptide (printed in Table 1 as H3T3phoK3me3)]
[4]
  Kd: 6.52 ± 0.48 mM

B2: Eaf3 chromodomain (Eaf3 CD; essential Sas2-related acetyltransferase 1-associated factor 3) (Saccharomyces cerevisiae) (protein)
chain: T1 chain
[5]; not stated for the pH titration, the authors state that the pH changes did not disrupt the structure
  pKa: approximately 6.8

B3: Eaf3 chromodomain (residues 1-120) G19A (domain or fragment, Saccharomyces cerevisiae, UniProt Q12432 1-120, looked up)
chain: T1 chain with G19A
notes: Eaf3, Saccharomyces cerevisiae, chromodomain, residues 1-120; source: E. coli BL21(DE3)pLysS, purified (Ni-NTA, thrombin, Ni-NTA, Superdex75)
[6]
  stoichiometry N: 2

B4: Eaf3 chromodomain (Eaf3 CD; essential Sas2-related acetyltransferase1-associated factor 3) (Saccharomyces cerevisiae) (protein)
chain: T1 chain
[5]; the authors state that the pH changes caused no disruption of structure
  pKa: 6.47

B5: Eaf3 chromodomain (residues 1-120) Y23A (domain or fragment, Saccharomyces cerevisiae, UniProt Q12432 1-120, looked up)
chain: T1 chain with Y23A
notes: as for B3
[6]
  stoichiometry N: 2

B6: Eaf3 CD: chromodomain (residues 1−120) of budding yeast Eaf3 (protein)
chain: T1 chain
modifications: left off: His6, end not stated, cleaved
notes: chromodomain (residues 1−120) of budding yeast Eaf3
[7]; NMR pH titration, 25°C, overall
  observed pKa value of His18: approximately 6.8
[7]; at pH 5.2
  fraction of Eaf3 CD molecules with protonated His18: almost all
[7]; at physiological pH of 6.8
  fraction of Eaf3 CD molecules protonated at His18: almost half

B7: Histone H3 peptide dimethylated at Lys36 (H3K36me2), 18 residues (peptide)
peptide: SAPSTGGVK(me2)KPHRYKPGT
notes: as for B1
[3]
  Kd: 4.41 ± 0.908 mM

## ART[Lys(Me2)]QTARKSTGGKAPRY [histone H3 peptide H3K4me2, titration peptide]
[4]
  Kd: 4.04 ± 0.11 mM
